Measured values as given in publication PMC5680235, “Identification of a peptide recognizing cerebrovascular changes in mouse models of Alzheimer’s disease” (Nature Communications, 2017).
Where no end group is shown, it is not given here. FAM = 5(6)-carboxyfluorescein label

T1: full-length recombinant human CTGF/CCN2 (human, UniProt P29279 27-349)
T1 construct: connective tissue growth factor (CTGF/CCN2), human, full-length recombinant; also called connective tissue growth factor; recombinant CTGF; source: bought: R&D systems (cat#9190-CC)
T1 sequence (looked up): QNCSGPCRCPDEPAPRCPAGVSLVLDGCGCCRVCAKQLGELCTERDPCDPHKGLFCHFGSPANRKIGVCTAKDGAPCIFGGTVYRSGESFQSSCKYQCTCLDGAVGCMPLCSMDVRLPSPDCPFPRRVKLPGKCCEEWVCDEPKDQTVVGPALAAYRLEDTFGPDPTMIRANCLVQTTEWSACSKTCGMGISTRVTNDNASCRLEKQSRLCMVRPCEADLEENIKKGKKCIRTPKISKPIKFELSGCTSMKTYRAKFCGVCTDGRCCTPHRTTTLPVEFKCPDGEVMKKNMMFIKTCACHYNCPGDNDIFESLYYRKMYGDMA

B1: unlabeled DAG peptide (cyclic CDAGRKQKC) (peptide)
peptide: CDAGRKQKC
modifications: also: cyclic peptide, ring type not given here
notes: cyclic 9-amino acid CX7C peptide found by in vivo T7 phage display, without label; Synthesised on rink amide resin, so the C-terminus is probably an amide; also called non-labeled DAG; free DAG; source: synthetic peptide
B2: FAM-labeled DAG peptide (cyclic CDAGRKQKC) (peptide)
peptide: {FAM}-CDAGRKQKC
modifications: also: cyclic peptide, ring type not given here
notes: cyclic 9-amino acid CX7C peptide found by in vivo T7 phage display in hAPP-J20 mice; Synthesised on rink amide resin, so the C-terminus is probably an amide; the ring is probably a disulfide between the two cysteines (neither is stated for this peptide); also called FAM-DAG; source: synthetic peptide

Target: T1, full-length recombinant human CTGF/CCN2
Test: ELISA; plate wells coated with recombinant human CTGF; FAM-peptide in 0.05% Casein/PBST overnight at 4 °C, two peptide concentrations; alone or with excess unlabeled DAG (0.6 mM); detected with anti-FITC HRP antibody, absorbance at 450 nm
Conditions: both partners purified

Row | Binder | binding result
1 | B1 | binds
2 | B2 | binds
